Laboratory results reported in the DeepSol protein solubility set.

Experiment: soluble on expression in E. coli; label from the status in PepcDB or PDB records

**Q.** Which “soluble on expression in E. coli” value does the source give for “GKSASMAVEEIASRKDISLRDMQISAILKMLFLNKDLNNNDNITTITDDIFNQQEIIWKVLILDIKSTATISSVLRVNDLLKAGITVHSLIKQDRSPLPDVPAIYFVSPTKENIDIIVNDLKSDKYSEFYINFTSSLPRNLLEDLAQQVSITGKSDKIKQVYDQYLDFIVTEPELFSLEISNAYLTLNDPKTTEEEITGLCANIADGLFNTVLTINSIPIIRAAKGGPAEIIAEKLGTKLRDFVINTNSSSTSTLQGNDSLERGVLIILDRNIDFASMFSHSWIYQCMVFDIFKLSRNTVTIPLESKENGTDNTTAKPLATKKYDIEPNDFFWMENSHLPFPEAAENVEAALNTYKEEAAEITRKTGVTNISDLDPNSNNDTVQIQEVVKKLPELTAKKNTIDTHMNIFAALLSQLESKSLDTFFEVEQDPGSTKTRSRFLDILKDGKTNNLEDKLRSFIVLYLTSTTGLPKDFVQNVENYFKENDYDINALKYVYKLREFMQLSNMSLQNKSLEDGSDSAFKPSNLTLSGIYGLTEGKLQGGVGSLISGIKKLLPEKKTIPITNVVDAIMDPLNSSQKNLETTDSYLYIDPKITRGSHTRKPKRQSYNKSLVFVVGGGNYLEYQNLQEWAHSQLHNPKKVMYGSTAITTPAEFLNEISRLGASNSSNNDA” here?
**A.** Its value is “soluble”.

**Q.** For “MICTPKVGLNNQLTKVQFFMTKYNFLFKQQVIEFYLQNDKNSSLTRRHFQLAETTLERWINQFNHSGINGLALLGKKRNYSPEFKLNVIQAVKNGKFSAEAACLHFGIANSGVVSQWLQAFEKQGINGLIPKPKGRPTMKLQYPKMPPKPKTREEELELENLRLRAENAILKKLQELNQQKMQKKPLSLEHHHHHH”, which “soluble on expression in E. coli” value is on record?
**A.** Its value is “not soluble”.

**Q.** With “MASRAPKEVPLCPLMTDGETRNVTDLPGPTNWPLLGSLLEIFWKGGLKKQHDTLAEYHKKYGQIFRMKLGSFDSVHLGSPSLLEALYRTESAHPQRLEIKPWKAYRDHRNEAYGLMILEGQEWQRVRSAFQKKLMKPVEIMKLDKKINEVLADFLERMDELCDERGRIPDLYSELNKWSFESICLVLYEKRFGLLQKETEEEALTFITAIKTMMSTFGKMMVTPVELHKRLNTKVWQAHTLAWDTIFKSVKPCIDNRLQRYSQQPGADFLCDIYQQDHLSKKELYAAVTELQLAAVETTANSLMWILYNLSRNPQAQRRLLQEVQSVLPDNQTPRAEDLRNMPYLKACLKESMRLTPSVPFTTRTLDKPTVLGEYALPKGTVLTLNTQVLGSSEDNFEDSHKFRPERWLQKEKKINPFAHLPFGIGKRMCIGRRLAELQLHLALCWIIQKYDIVATDNEPVEMLHLGILVPSRELPIAFRPR” as the sequence, how does the “soluble on expression in E. coli” value read?
**A.** The value was “soluble”.

**Q.** Which “soluble on expression in E. coli” value does the source give for “MAKHHPLTDWLPTSKKEMEAKGWDEADVILFSGDAYVDHPSFGAAVVGRILEAEGLRVAIVPQPNWRDDLRDFRKLGRPRLFFGVSAGAMDSMVNKYTANRRLRSEDAYTPDRRSDMRPDYPTIVYTRILKELFPDVPVIVGGIEASLRRLTHYDYWQDKLLPGILYQSGADLLIYGMGELPLHEIAQRLIAGEPFDSLKSIRQIAYLVPKGKTPVPCENDRHLFSHEECLSDKRKQAQNFREIEIQSNRYEADRILQAVGDSTIVVNPPFPPMSTAQIDQSFDLPYTRLPHPRYKGKIISAYEMIKHSVNVHRGCFGGCAFCTISAHQGKFIASRSEASVLREVKEITEMEDFKGYLSDVGGPSANMYKMQGYDLSICKRCKKPSCIHPNVCPNLNADHRPLLDLLRRIDKNPKIKKSFIGSGVRMDLLLHNYKDKVLKKAADEYTEDLIVKHVSGRLKVAPEHSSDRVLNLMRKPPFRQFAEFTKRFQRINEAHGLRQQLIPYFISSHPGCTEEDMAELAILTKKLDFKLEQIQDFTPTPMTLATEMYYTGYHPYTLQPVYTAIKKEEKMRQHMFFFWYKREEADKIRRELHRIGRPDLIAKLFDRTTSSRNDRHTPPSTQPRKSKSKSRHS” here?
**A.** The value was “not soluble”.

**Q.** Which “soluble on expression in E. coli” value does the source give for “SNQEKLQRTMIHFNNPEVQAFLAVNTFTITGHGETKQLTEMLRSVLNQLAAVSLTSLRRLAEALPKQSVDGKAPLATGEDDDDDEVPGIMENFDEASKNEAN” here?
**A.** The value was “soluble”.

**Q.** With “MAEAVITLTEAAAFQIKDMMKEQEEEGAYLRVGVHGGGCSGLSYGMGFDHERRDDDIEFEQHGIKILVDRDSAPILRGTVIDYKQSLLGGGFTINNPNAIATCGCGSSFRTATNAGTPEQC” as the sequence, how does the “soluble on expression in E. coli” value read?
**A.** The value was “soluble”.

**Q.** Which “soluble on expression in E. coli” value does the source give for “MSRLLSGGVGVIFAVLFSVNVGNARDQIQITGSSTVLPYQKIVAEIFGEIYPHFKIPVIESGGTGGGIKEFCRGIGENAIDIVNASRAMKLSELQSCFDAGVKDVEEIRIGYDGIVFATDINGPDWKLQPVDIYRALAARIMKDGKLQSNNVSKWSAVNSALPGWTIAAYIPGEKH” here?
**A.** Its value is “not soluble”.

**Q.** With “MENKHNPTSHTSHTWSELPELNPCVPLGTLLPDKSCPKTHPLADLIPPRQQQQFMHGNSWKLAPYGRSMIMRYAMQVRGQLAPTVLGINRTWKGDTCWNQIPKTSDCFHMVYKDHKLYFLNKTGSFKIFDFCGDIPQQTFEWSVKVERSQFGPPPPSNPWKVLATKLVVTVTGKVLKVEEMGGARPRTWSFRVFESMLLDQGITVLANDTGGFIRNTIYFSASHGNNTHDIYIFNLETQKTEPLHTLDSYSSSVQFYGAQWFVPSFKH” as the sequence, how does the “soluble on expression in E. coli” value read?
**A.** The value was “soluble”.

**Q.** For “MRGSHHHHHHGSMKRAVITGLGIVSSIGNNQQEVLASLREGRSGITFSQELKDSGMRSHVWGNVKLDTTGLIDRKVVRFMSDASIYAFLSMEQAIADAGLSPEAYQNNPRVGLIAGSGGGSPRFQVFGADAMRGPRGLKAVGPYVVTKAMASGVSACLATPFKIHGVNYSISSACATSAHCIGNAVEQIQLGKQDIVFAGGGEELCWEMACEFDAMGALSTKYNDTPEKASRTYDAHRDGFVIAGGGGMVVVEELEHALARGAHIYAEIVGYGATSDGADMVAPSGEGAVRCMKMAMHGVDTPIDYLNSEGTSTPVGDVKELAAIREVFGDKSPAISATKAMTGHSLGAAGVQEAIYSLLMLEHGFIAPSINIEELDEQAAGLNIVTETTDRELTTVMSNSFGFGGTNATLVMRKLKD”, which “soluble on expression in E. coli” value is on record?
**A.** Its value is “soluble”.

**Q.** With “MGSSHHHHHHSSGLVPRGSHMEQMHSLESSLPPEQPPTKQAIESLNLELSQEFKLAANAVTRLYRVANEKNSLTKHQGYLTCLDDILCALDSNVTADELRAWCYKRRNDILSNSQDKSLNPVKERERKLNKFSENQHRENEAHKEPFEKDSAVKYNFSFNESNGDLSNINENIAPKFRLSMPPLSVEHPPRNASRIKSWKARTINHGRGDTRNLNDITGLGHERERDRENTHYEKKPKLDSDSEVDIRSFRQDMDL” as the sequence, how does the “soluble on expression in E. coli” value read?
**A.** The value was “soluble”.

**Q.** Which “soluble on expression in E. coli” value does the source give for “GEEEKKRTARTDYWLQPEIIVKIITKKLGEKYHKKKAIVKEVIDKYTAVVKMIDSGDKLKLDQTHLETVIPAPGKRILVLNGGYRGNEGTLESINEKTFSATIVIETGPLKGRRVEGIQYEDISKLA” here?
**A.** Its value is “soluble”.

**Q.** With “MSNITIYHNPACGTSRNTLEMIRNSGTEPTIILYLENPPSRDELVKLIADMGISVRALLRKNVEPYEQLGLAEDKFTDDQLIDFMLQHPILINRPIVVTPLGTRLCRPSEVVLDILQDAQKGAFTKEDGEKVVDEAGKRLK” as the sequence, how does the “soluble on expression in E. coli” value read?
**A.** The value was “soluble”.

**Q.** With “MSLRYLSESKVAIKHSNDLNGSNLNVALLMGAGNPSSAEDALYLKEYINSPDMLAVLDKQLDFRQAFGHSGWDFFYHLSDSATREQFLNYYRNRISVSYDDKTGLLTIGTQGFSPEFAQKFNQAVLKESERFINEEGHHHHHH” as the sequence, how does the “soluble on expression in E. coli” value read?
**A.** Its value is “soluble”.

**Q.** For “MGSDKIHHHHHHMNGALDVLAPAEVIVAATAPADNEASDMPPVEIVLDSPPVSAEMVFDEDADLLDRLATDDEAAFRMLVERHIDRAYSIALRILGNSADAEDVVQDTMLKVWTHRGRWQHGRAKFSTWLYRVVSNRCIDLRRKPRTENVEAVPEVADTQPDAVRVIERNELSNLLEAAMQRLPEQQRIAVILSYHENMSNAEIAEVMDTTIAAVESLLKRGRQQLRARLSGDESELRAAFTDF”, which “soluble on expression in E. coli” value is on record?
**A.** Its value is “not soluble”.

**Q.** Which “soluble on expression in E. coli” value does the source give for “MTIDDSNRLLMDVDQFDFLDDGTAQLSNNKTDEEEQLYKRDPVSGAILVPMTVNDQPIEKNGDKMPLKFKLGPLSYQNMAFITAKDKYKLYPVRIPRLDTSKEFSAYVSGLFEIYRDLGDDRVFNVPTIGVVNSNFAKEHNATVNLAMEAILNELEVFIGRVKDQDGRVNRFYELEESLTVLNCLRTMYFILDGQDVEENRSEFIESLLNWINRSDGEPDEEYIEQVFSVKDSTAGKKVFETQYFWKLLNQLVLRGLLSQAIGCIERSDLLPYLSDTCAVSFDAVSDSIELLKQYPKDSSSTFREWKNLVLKLSQAFGSSATDISGELRDYIEDFLLVIGGNQRKILQYSRTWYESFCGFLLYYIPSLELSAEYLQMSLEANVVDITNDWEQPCVDIISGKIHSILPVMESLDSCTAAFTAMICEAKGLIENIFEGEKNSDDYSNEDNEMLEDLFSYRNGMASYMLNSFAFELCSLGDKELWPVAIGLIALSATGTRSAKKMVIAELLPHYPFVTNDDIEWMLSICVEWRLPEIAKEIYTTLGNQMLSAHNIIESIANFSRAGKYELVKS” here?
**A.** Its value is “soluble”.

**Q.** With “GTEETAKVVPMAVITPAINQLTDQEKAEGWALLFDGKTTKGWRGAHKDAFPDHGWMVKDGELIVQKSDGSESTNGGDIVTEGEYSAFEFSVDFKITEGANSGIKYFVTEQEKQKGSAYGLEFQLLDDAKHPDAKLYTTFPGSRTLGSLYDLKKSENIHFNGVGEWNTAVVKVFPNNHVEHWLNGVKVLEYERGSKEFRDLVKGSKYADPSYNAGGAFGEAPKGHILLQDHGDEVAFRNIKVKELK” as the sequence, how does the “soluble on expression in E. coli” value read?
**A.** The value was “soluble”.

**Q.** With “MGSDKIHHHHHHAQTLPFRLSKGAGTFRLGVVCGNESCWLDQCSVKKKGQAYTIKDKLWKEGEIKLIVCPLTDSNGFIMEVSGERLPEEFKLCWAFGACDGADDSAVTDNSIPVASCFHNVFSIEGNAFTTYYGESMKLRTVHGVSPIGSEIRLSDGHKQASPLALFNSGKKTDAPVISALCPWKPQEKLYFCFYQRGDYNYFMLPGLFGKEHKTRSK” as the sequence, how does the “soluble on expression in E. coli” value read?
**A.** The value was “not soluble”.

**Q.** Which “soluble on expression in E. coli” value does the source give for “GMIDEKFLIESNELVESSKIVMVGTNGENGYPNIKAMMRLKHDGLKKFWLSTNTSTRMVERLKKNNKICLYFVDDNKFAGLMLVGTIEILHDRASKEMLWTDGCEIYYPLGIDDPDYTALCFTAEWGNYYRHLKNITFKIDEIYNY” here?
**A.** The value was “soluble”.

**Q.** Which “soluble on expression in E. coli” value does the source give for “MSLDIENTLLKQEAWRFIDNTTINPAFDAIQSFATDDTLCRSVGARMVPPTVRGWVHEKTVSLGIQDSKLPDIDKGIAFLQEQGYRVVVRNSGGLAVVLDSGVLNLSMVLPDAERGIAIERGYETMFTLIKDMFVDCNEVIEAKEIVNSYCPGSYDLSIQGQKFAGISQRRMAKGVAVQIYLAVEGDQAARSELIRDFYTISGKDKQTKYSFPDVKPEVMGTLSDLMKENMTVNGCLVRLFNSLRHYAGKLESGTLTPEELDLFPAYYERLIARNDKVLSEGHHHHHH” here?
**A.** The value was “soluble”.

**Q.** With “ITEQTGQLVYDYNIEKDIADVAGNIEELTGFTSEELGNINLKLWTSRIHPEDLNRFLENHKKYLEPDRKSYRIEYRFRKKNGEYIYLEENWVSPEGDRKSSVKRVLGVIKNITERKQA” as the sequence, how does the “soluble on expression in E. coli” value read?
**A.** The value was “not soluble”.

**Q.** For “MGSDKIHHHHHHMATSQERLGMNLKKCIQRLRKVANRGPSHKARLENIDEKIVVTGTRGKSGATRWLYEILYGRGRDAFAKITGNRPLVLHDGESHPIERGRRVTLYENEAQLRQYAPVETAIFENQAIGEYTTRTVHQRFTDPDVIFLTNIRSDHLDWLGDTPTQIARSFARTIPDGVTLVVGEQRPTLRAMLKRELEETDVQIRWVLVPKALQNVPGAETILGLNDVLEALGEQPLSDRQIEAYIDEMQVRWTTLADGRVYNAASVNDIDSTEIVRRALDDNDVDTIQPLIYLRPDRRARTASFLSYLDGLYSDDVFEVTHAVGPHAELFDNQASFPVATHDASKSASAVLDAALSPGWPVFIMGNTVADFMRDLEAEIEARRVDSSQGMPEKSTSANEKRAIERPQ”, which “soluble on expression in E. coli” value is on record?
**A.** Its value is “not soluble”.

**Q.** For “MDYYYYPFVSDPYAVYTPNVWQSQGADELYLYSMPAIERQPQPVLSNAPAQTSIVLFKELTGYPNYGNPSGNADILYTGNRGTWTFDIQPILLIPGNLTAQLVIRGVLDDHTNVPVANYSARITINGTVVHTGRLPLVHGSPAGQRFNNWRLLTFNVPNLRRNNTVVIQNTSNTGPNDWIAFDWMELRLQPR”, which “soluble on expression in E. coli” value is on record?
**A.** The value was “not soluble”.
